Data reported in publication PMC9513391, “Crystal structure of the α-ketoglutarate-dependent non-heme iron oxygenase CmnC in capreomycin biosynthesis and its engineering to catalyze hydroxylation of the substrate enantiomer” (Frontiers in Chemistry, 2022).

Biological target: the molecule itself
Assay: crystal structure; CmnC apo and soaked complexes (L-Arg, L-hArg, alpha-KG, L-Arg/alpha-KG), space group I222, two chains in the asymmetric unit; apo crystals from 200 mM ammonium acetate, 24% v/v PEG 400, 0.1 M sodium citrate pH 5.5, 20°C

B1: CmnC (enzyme)
chain: MTAIREIRLSEPESAQAALLALECAQRYAEPDSADFLADAAVLAHDLPRAVRREVERARLDDRLHALVVRGNDVDQDALGPTPPHWRQARTAASRRYGFLLVLYASLLGDVVGWATQQDGRVVTDVLPIEGQEDSLVSSSSSVELGWHTEDAFSPYRADYVGLFSLRNPDSVATTVAGLDPDLVGPAVVDVLFGERFHIRPDNSHLPTHNSGGRLSDYFAGIVEAVENPRAVSILRGHRDAPQLCVDSDFTTAVDGDAEAAGALDTLIKHLGGALYEVVLGPGDVAFLDNRNVVHGRRPFRARFDGTDRWLKRINVTADLRKSRAARRDAQARVLGEA
notes: CmnC, alpha-ketoglutarate-dependent non-heme iron oxygenase of capreomycin biosynthesis; gene cmnC amplified from genomic DNA of the capreomycin producer (ATCC 23892) and subcloned into pET28a; also called CmnC^apo; wild-type CmnC
  stoichiometry N: 2
